Read-outs that look alike come from different tables or passages of the source. Non-standard residues stand in square brackets, D forms with d. Residues, ends and D or L forms follow the SMILES beside them. *: point of attachment. DOTA = O=C(O)CN1CCN(CC(=O)O)CCN(CC(=O)*)CCN(CC(=O)O)CC1; Tle = CC(C)(C)[C@H](N)C(=O)O; X1 = NCCNCC(CNCCN)C(=O)*; Dab = NCC[C@H](N)C(=O)O; βAla = NCCC(=O)O
How the values were obtained:
[1] = biological target: NEP (Homo sapiens, UniProt P08473); conditions: reversible competitive inhibitor; cited from earlier work
[2] = system: AR4-2J tumors (rsst2+); parameters: species or system SCID mice; conditions: SCID, mouse, in vivo, 4 h
Method: FIG. 1D: Biodistribution of [(^111In-DOTA)Ala^1]Somatostatin-14 in SCID mice bearing AR4-2J tumors (rsst2^+) at 4 h pi.
FIG. 2C: Biodistribution of [(^111In-DOTA)Ala^1, DTrp^8]Somatostatin-14 in SCID mice bearing AR4-2J tumors (rsst2^+) at 4 h pi.
Of great importance is the direct translation of PA-(or race) induced radiopeptide stabilization into meaningful and dramatic increase of tumor uptake in animals. Indeed, uptake in the rsst2^+ AR4-2J tumor after injection of ^111In[(DOTA)Ala^1]SS14 reached 13.87±2.4% ID/g in the PA-treated group at 4 h pi vs. 0.67±0.1% ID/g in the non-treated controls, while in the race pre-treated mice tumor values reached 3.51±0.2% ID/g, as presented in FIG. 1B. The corresponding values for the DTrp^8-analog, shown in FIG. 2B, reach 9.06±3.57% ID/g (PA group), 4.18±2.28% ID/g (race group) and 1.82±0.36% ID/g (non-treated controls).

[3] = parameters: species or system Swiss albino mice; conditions: mouse, in vivo, 5 min
Method: Whole blood was collected 5 min postinjection (pi), blood cells were removed and major proteins were precipitated and then the supernatant was analyzed by RP-HPLC coupled to a gamma detector.
Alternatively, the dual NEP and ACE inhibitor racecadotril (race; 2.5 mg) was ip injected 45-60 min prior to radioligand injection and the same procedure was followed as described above.
To test the in vivo stability, ^111In-DOTA-MG11 was injected in the tail vein of Swiss albino mice and 5 min afterwards blood was collected, blood cells were removed and major proteins were precipitated and then the supernatant was analyzed by RP-HPLC coupled to a gamma detector. As shown in the radiochromatogram of FIG. 3A, the major part of ^111In-DOTA-MG11 was consumed during this period (<5% intact peptide still detected), in agreement with previous reports. Further, ^111In-DOTA-MG11 was co-injected together with PA or injected 1 h after ip injection of race (2.5 mg) in more mice and the same protocol was followed as above. Amazingly, the percentage of ^111In-DOTA-MG11 found intact in the blood of the PA-treated mice was raised from <5% to 75% and in the race-pretreated mice to 73%.
For ex vivo blood analysis, [^99mTc]Demotensin 6 was injected in the tail vein of Swiss albino mice and blood collected 5 min thereafter was analyzed as previously described. The effect of PA on stability was studied by co-injection of PA along with [^99mTc]Demotensin 6. Furthermore, a PA dose study was performed with the PA injected dose ranging from 300 μg down to 0.03 μg and results are summarized in FIG. 4A.
Additional groups of radiopeptides with relevance for nuclear medicine applications have been studied for their in vivo stability. Radiopeptides were injected in the tail vein of healthy mice, either alone, or with a NEP inhibitor (PA—300 μg), or with a NEP (PA—300 μg) and an ACE (Lis—300 μg) inhibitor mixture; alternatively, another NEP inhibitor prodrug (race—2.5 mg) was ip injected in the animals ˜45 min prior to radioligand injection. Blood was collected 5 min afterwards, and analyzed by RP-HPLC after suitable preparation, as previously described.

[4] = mouse; cited from earlier work
[5] = human; cited from earlier work
[6] = system: WiDr tumors (hNTS1+); assay: Biodistribution / tumor uptake in SCID mice bearing WiDr tumors (hNTS1+); conditions: SCID, mouse, in vivo, 4 h
Method: FIG. 4H: Biodistribution of [^99mTc]Demotensin 6 in SCID mice bearing WiDr tumors (hNTS1^+) at 4 h pi. Bars represent average uptake as mean % injected dose per gram (% ID/g) of at least 4 animals with standard deviation (control at 4 h 2nd bars); three additional groups of animals received either excess NT(1-13) and PA (100 μg blocker and 300 μg PA—first bars), or PA (300 μg PA—3rd bars) or PA and Lis (300 μg PA+250 μg Lis—4th bars). Bl=blood, Li=liver, He=heart, Ki=kidneys, St=stomach, In=intestines, Sp=spleen, Mu=muscle, Lu=lungs, Pa=pancreas, Fe=femur and Tu=WiDr tumor.
FIG. 5H: Biodistribution of [^99mTc]Demotensin 1 in SCID mice bearing WiDr tumors (hNTS1+) at 4 h pi. Bars represent average uptake as mean % injected dose per gram (% ID/g) of at least 4 animals with standard deviation (control at 4 h 2nd bars); three additional groups of animals received either excess NT and PA (100 μg and 300 μg PA, respectively—first bars), or PA (300 μg PA—3rd bars) or PA and Lis (300 μg PA+300 μg Lis—4th bars). Bl=blood, Li=liver, He=heart, Ki=kidneys, St=stomach, In=intestines, Sp=spleen, Mu=muscle, Lu=lungs, Pa=pancreas, Fe=femur and Tu=WiDr tumor.
In FIG. 4B the effects of such regimens on SCID mice bearing the human colon adenocarcinoma WiDr tumor (a hNTS1R^+ tumor) on enhancing in vivo tumor targeting are presented.
In FIG. 5B the effects of above regimens on SCID mice bearing WiDr tumors (hNTS1R^+) on enhancing in vivo tumor targeting are shown.

[7] = system: AR4-2J tumors (rCCK2R+); parameters: species or system SCID mice; conditions: mouse, in vivo
Method: FIG. 3D: Biodistribution of ^111In-DOTA-MG11 in SCID mice bearing AR4-2J tumors (rCCK2R^+) at 4 h pi.
Biodistribution results in SCID mice bearing rCCK2R^+ AR4-2J tumors 4 h after injection of ^111In-DOTA-MG11 alone or together with PA or 1 h after ip injection of race are shown in FIG. 3B.

Sequence of NEP (P08473 whole entry): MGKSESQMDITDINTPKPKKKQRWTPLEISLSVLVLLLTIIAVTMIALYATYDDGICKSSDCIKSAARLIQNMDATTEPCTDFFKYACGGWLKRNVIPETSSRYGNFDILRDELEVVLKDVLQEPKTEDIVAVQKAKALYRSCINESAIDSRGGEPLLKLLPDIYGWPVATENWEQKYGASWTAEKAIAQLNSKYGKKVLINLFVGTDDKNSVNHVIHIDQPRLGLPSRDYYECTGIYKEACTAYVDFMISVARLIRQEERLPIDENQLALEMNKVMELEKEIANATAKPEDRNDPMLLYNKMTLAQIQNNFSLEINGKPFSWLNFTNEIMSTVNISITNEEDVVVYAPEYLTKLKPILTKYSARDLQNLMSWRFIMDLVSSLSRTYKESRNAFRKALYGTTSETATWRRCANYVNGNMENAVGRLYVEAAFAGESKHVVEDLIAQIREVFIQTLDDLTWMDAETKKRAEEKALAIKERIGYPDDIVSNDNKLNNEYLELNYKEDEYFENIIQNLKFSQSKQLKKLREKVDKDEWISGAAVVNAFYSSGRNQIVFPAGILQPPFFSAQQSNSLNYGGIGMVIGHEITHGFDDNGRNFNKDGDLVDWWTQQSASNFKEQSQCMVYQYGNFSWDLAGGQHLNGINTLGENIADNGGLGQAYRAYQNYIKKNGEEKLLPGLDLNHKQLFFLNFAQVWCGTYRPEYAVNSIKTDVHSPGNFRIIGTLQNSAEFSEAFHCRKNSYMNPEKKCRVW

CC(C)C[C@H](NP(=O)(O)O[C@@H]1O[C@@H](C)[C@H](O)[C@@H](O)[C@H]1O)C(=O)N[C@@H](Cc1c[nH]c2ccccc12)C(=O)O [Phosphoramidon, phosphoramidon]
IC50 [1]: 34 nM

C[C@H](NC(=O)CN1CCN(CC(=O)O)CCN(CC(=O)O)CCN(CC(=O)O)CC1)C(=O)NCC(=O)N[C@H]1CSSC[C@@H](C(=O)O)NC(=O)[C@H](CO)NC(=O)[C@H]([C@@H](C)O)NC(=O)[C@H](Cc2ccccc2)NC(=O)[C@H]([C@@H](C)O)NC(=O)[C@H](CCCCN)NC(=O)[C@H](Cc2c[nH]c3ccccc23)NC(=O)[C@H](Cc2ccccc2)NC(=O)[C@H](Cc2ccccc2)NC(=O)[C@H](CC(N)=O)NC(=O)[C@H](CCCCN)NC1=O [[(^111In-DOTA)Ala^1]Somatostatin-14, metal not drawn]
uptake in AR4-2J tumor [2]: 0.67±0.1 % ID/g

CC(C)C[C@H](NC(=O)[C@@H](NC(=O)[C@H](Cc1ccc(O)cc1)NC(=O)[C@@H]1CCCN1C(=O)[C@H](CCN)NC(=O)[C@H](CCCNC(=N)N)NC(=O)CCNC(=O)C(CNCCN)CNCCN)C(C)(C)C)C(=O)O [[^99mTc]Demotensin 6, ^99mTc-N4-βAla-Arg-Dab-Pro-Tyr-Tle-Leu-OH, metal not drawn] ({X1-βAla}-R[Dab]PY[Tle]L-OH)
percentage of parent peptide remaining intact [3]: 52% | in vitro stability in plasma [4]: stable | in vitro stability in plasma [5]: stable | uptake in WiDr tumor [6]: 1.61±0.42 % ID/g

CSCC[C@H](NC(=O)[C@H](Cc1c[nH]c2ccccc12)NC(=O)CNC(=O)[C@H](Cc1ccc(O)cc1)NC(=O)[C@H](C)NC(=O)[C@@H](CCC(=O)O)NC(=O)CN1CCN(CC(=O)O)CCN(CC(=O)O)CCN(CC(=O)O)CC1)C(=O)N[C@@H](CC(=O)O)C(=O)N[C@@H](Cc1ccccc1)C(N)=O [^111In-DOTA-MG11, [(^111In-DOTA)DGlu^10]Minigastrin(10-17), metal not drawn] ({DOTA}-[dE]AYGWMDF-NH2)
percentage of parent peptide remaining intact [3]: < 5% | uptake in AR4-2J tumor ([7]; SCID, 4 h): 1.22±0.06 % ID/g | increase in the tumor by PA administration [7]: > 9 fold

Source: patent US11612667B2, “Enhanced in vivo targeting of radiolabelled peptides with the means of enzyme inhibitors” (Advanced Accelerator Applications USA, Inc., priority 2011, dated 2023)
